{"source": "paper PMC5830917", "about": "(The EMBO Journal, 2018)", "molecular_target": "T1, GFP-NBR1 (human, UniProt Q14596-1 1-966)", "T1 construct": "NBR1, human, ORF amplified from a HeLa cDNA library; The TEV site lies between StrepII and GFP, so the cleaved protein keeps GFP; also called 6xHis‐Strep‐TEV‐GFP‐NBR1; Strep‐TEV‐GFP‐NBR1; source: Sf9 insect cells (Bac-to-Bac), purified (HisTrap, TEV cleavage, Superose6); not shown: His6, N-terminal, cleaved; StrepII, N-terminal, cleaved; GFP (meGFP, A206K), N-terminal, kept", "T1 sequence (looked up)": "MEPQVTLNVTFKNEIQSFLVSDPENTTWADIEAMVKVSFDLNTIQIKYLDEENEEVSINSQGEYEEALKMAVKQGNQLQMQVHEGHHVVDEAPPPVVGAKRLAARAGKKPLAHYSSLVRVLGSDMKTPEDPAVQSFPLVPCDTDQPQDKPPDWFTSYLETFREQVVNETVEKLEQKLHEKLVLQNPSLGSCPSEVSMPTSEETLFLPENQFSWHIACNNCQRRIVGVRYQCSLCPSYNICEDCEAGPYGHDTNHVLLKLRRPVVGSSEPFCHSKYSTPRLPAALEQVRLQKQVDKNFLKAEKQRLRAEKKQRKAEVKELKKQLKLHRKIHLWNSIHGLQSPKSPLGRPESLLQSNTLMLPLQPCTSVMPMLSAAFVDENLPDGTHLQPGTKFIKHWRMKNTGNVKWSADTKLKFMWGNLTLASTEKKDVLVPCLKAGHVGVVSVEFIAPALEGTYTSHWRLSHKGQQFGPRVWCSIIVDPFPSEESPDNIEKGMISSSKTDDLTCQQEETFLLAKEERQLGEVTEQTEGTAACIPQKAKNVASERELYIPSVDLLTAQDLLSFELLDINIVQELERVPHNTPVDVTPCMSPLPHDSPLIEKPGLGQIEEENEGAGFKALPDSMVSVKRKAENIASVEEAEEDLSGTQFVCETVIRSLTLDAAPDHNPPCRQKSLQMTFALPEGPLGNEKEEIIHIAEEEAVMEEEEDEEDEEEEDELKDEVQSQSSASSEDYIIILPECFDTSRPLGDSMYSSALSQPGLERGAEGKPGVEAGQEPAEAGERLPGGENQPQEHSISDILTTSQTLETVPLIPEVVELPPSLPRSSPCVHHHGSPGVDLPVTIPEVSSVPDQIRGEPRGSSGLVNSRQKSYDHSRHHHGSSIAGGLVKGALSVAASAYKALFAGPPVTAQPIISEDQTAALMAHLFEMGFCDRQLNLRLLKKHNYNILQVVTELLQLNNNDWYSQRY", "test": "microscopy-based protein-protein interaction assay on beads; GFP-NBR1 on GFP-TRAP beads; 2 μM mCherry-p62 variants at equilibrium in 25 mM HEPES pH 7.5, 150 mM NaCl, 1 mM DTT; spinning disk imaging", "details": "both partners purified"}
{"binder": "mCherry-p62 PB1 (1–102) (domain or fragment, UniProt Q13501 1-102, looked up, p62/SQSTM1, PB1 domain, residues 1-102; also called isolated PB1 domain of p62; source: recombinant, purified; site-directed mutagenesis on the plasmid for the full-length protein (pET-mCherry-p62 PB1); not shown: mCherry, N-terminal, kept) MASLTVKAYLLGKEDAAREIRRFSFCCSPEPEAEAEAAAGPGPCERLLSRVAALFPALRPGGFQAHYRDEDGDLVAFSSDEELTMAMSYVKDDIFRIYIKEK", "values": [{"measurement": "binding result", "value": "binds"}]}
